{
  "source": "patent US11124785B2",
  "about": "“Rothia subtilisins, S8A family proteases, as therapeutic enzymes for application in gluten intolerance disorders” (TRUSTEES OF BOSTON UNIVERSITY, priority 2016, dated 2021)",
  "key": {"[1]": {"details": "literature reference; cited from earlier work"}, "[2]": {"test_system": "casein", "test": "Casein zymography of R. aeria cell proteins", "format": "biochemical", "details": "excised bands 1-4, R. aeria cells, 1% casein", "procedure": "Bands 1-4 were excised and subjected to mass spectrometric analysis of the amino acid sequences and identification of the protein. The protein was identified as BAV86562.1 from Rothia aeria.\nSDS-PAGE and casein zymography—The four cell pellets were resuspended each in 200 μl zymogram sample buffer^2. To separate the proteins, the samples were applied to a non-reducing (no DTT or β-mercaptoethanol-containing) 6% SDS-PAGE gel of 16 cm×20 cm×0.15 cm, using a protean II xi cell system (Bio-Rad, Hercules, Calif.). The composition of this gel was the same as that of previously published 6% gliadin zymogram gels but without incorporation of gliadin^2. After electrophoresis at a constant voltage of 120V at 4° C., the gel was divided in two halves (“A-gel” and “B-gel”). One-half (“A-gel”) was stained with 0.1% Coomassie Brilliant Blue in 40% (v/v) methanol/10% (v/v) acetic acid. The other half (“B-gel”) was developed as a zymogram gel^3. (See FIGS. 12A and 12B). For this, the B-gel was washed twice for 30 min in buffer containing 2.5% Triton X-100 (renaturing buffer; Life Technologies, Carlsbad, Calif.), followed by washing twice for 1 h in buffer containing 20 mM Tris-HCl, pH 7.5 (developing buffer; Life Technologies, Carlsbad, Calif.). The B-gel was then incubated in developing buffer supplemented with 1% casein (Sigma, St. Louis, Mo.) at 37° C. for 1.5 h. […]"}, "[3]": {"test_system": "R. mucilaginosa enzyme preparation (Rmep)", "test": "Inhibitor profile of Rmep (Suc-AAPF-pNA hydrolysis)", "format": "biochemical, Rothia mucilaginosa", "details": "Eglin C 1.2 μM; Suc-AAPF-pNA", "procedure": "Inhibitors AEBSF, Aprotinin, E-64, EDTA, PMSF and Eglin C were tested at final concentrations of 10 mM, 0.08 mM, 0.1 mM, 1.5 mM, 1 mM, and 0.06 μM, respectively. Rmep was added at a final concentration of 5.7 μg/ml. The percent inhibition was determined from the ratio of the initial velocities of hydrolysis of Suc-AAPF-pNA (SEQ ID NO: 4) in the absence and presence of inhibitor.\n(§1) Hydrolysis of paranitroanilide-derivatized substrates—Paranitroanilide (pNA)-derivatized tripeptide substrates were chemically synthesized at >90% purity (21st Century Biochemicals, Marlborough, Mass.). The substrates obtained were Z-YPQ-pNA, Z-QQP-pNA, Z-LPY-pNA, Z-PFP-pNA, Z-PPF-pNA, where Z=benzyloxycarbonyl, Y=tyrosine, P=proline, Q=glutamine, L=leucine, and F=phenylalanine Suc-AAPF-pNA (SEQ ID NO: 4) was obtained from Sigma, where Suc=N-succinyl and A=alanine. The peptides were dissolved in 75-100% DMSO at 10 mM, and were used at a final concentration of 200 μM in 50 mM TrisHCl pH 8.0. Purified Rothia enzyme or subtilisin A from Bacillus licheniformis (Sigma) were tested at final concentrations of 1 μg/ml. Some experiments were conducted in the presence of inhibitors 4-(2-Aminoethyl) benzenesulfonyl fluoride (AEBSF), Aprotinin, E-64, EDTA, phenylmethanesulfonyl fluoride (PMSF) and Eglin C, which were tested at final concentrations of 10 mM, 0.08 mM, 0.1 mM, 1.5 mM, 1 mM, and 0.06-1.2 μM, respectively. Enzymes were preincubated with the inhibitors for 20 min before adding Suc-AAPF-pNA (SEQ ID NO: 4). Substrate hydrolysis was monitored for 10 h at 405 nm using a Genios microtiter plate reader (Tecan, Männedorf, Switzerland) in the kinetic mode at 37° C."}, "[4]": {"molecular_target": "T1, subtilisin A (Bacillus licheniformis, UniProt P00780)", "T1 construct": "purchased Sigma", "T1 sequence (P00780 106-379)": "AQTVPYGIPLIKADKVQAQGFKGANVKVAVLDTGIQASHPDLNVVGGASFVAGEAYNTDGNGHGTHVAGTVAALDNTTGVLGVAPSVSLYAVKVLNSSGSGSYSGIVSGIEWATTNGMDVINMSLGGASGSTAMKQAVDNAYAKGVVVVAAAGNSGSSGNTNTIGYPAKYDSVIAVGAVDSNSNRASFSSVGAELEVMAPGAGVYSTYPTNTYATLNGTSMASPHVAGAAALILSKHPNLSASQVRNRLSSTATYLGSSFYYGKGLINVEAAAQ", "test": "Inhibition of subtilisin A by Eglin C", "format": "biochemical", "details": "Eglin C 1.2 μM; Suc-AAPF-pNA", "procedure": "as §1"}},
  "data": [
    {"molecule": "BAV86562.1: Rothia aeria protein annotated glycerol-3-phosphate ABC transporter, belongs to the subtilisin family (peptidase S8) (protein, listed as Rothia aeria) MAITAGLPATAAPAGDPDTPVAQDIARNSREHAVLSDSMKKAEGNIPVFVQFKGKGAYEQTQSPAVLANKQAPTNKQAEVQAIKTQVQSQAQAAAQSTGAKTLYTTHNIMRGVALQGDAAQIRALANNPEVERITPIVPKKKQNAGSVVDTGAAENWARENSGYTGKDVKIAVVDSGIDYTHADFGGPGTVEAFNKATKLTEMPAADSGLYDAKKYIGGYDLVGDSYDGTNQTAPDNNPIDCSAGGHGTHVAGTAAGYGVNQDGTTFRGDYSKLTAEQLNQMKIGPGAAPEAQLYSFRVFGCTGTTGVVVQALDRTLDPNGDGDFSDRANIVNLSIGGEFSPPDDADAYAVESLNRQGVLAVVSAGNATDYYGRGDTYSDSGQPANAVSALTVANSIGSSYAVDSMEIQAPANVAGKVPGDYTVSYTYTGAKPEALTGTVVTPSESNKFGCEAFSAEDAAKIKDKWVFLEWANADGSLPCGSKVRFDNVEKAGGKGVVLSSEEEKPALPIGGNESIPGFRVAKSASAKVREAAANGELKVRLGTDLKESLRVPSNKKDQLTASSARGYHGTYGYTKPDVAAPGNNISSARVGTGTDGISYTGTSMSAPFAAGVAAQVLQANQSYGPTQLKAAIMNSANHDVRTADGNVYAVDRVGSGRIDAKAAAETKVLLYNADRPAQVSQTFGVLEYAVNEGKQTLTREMTVENFDSHTHTYNISYAGSTDMPGVEFSLPSNITVNPGEKKNFTVTITIDPAAMEKTMDPAMEKTHNSVDPYGDGTELVPEQYRQFIASESGRILLTEGAATLRAPIHAAPKPASAMKVEGSSVEIPAGEHQANLKLTGTELNQRGYKSLLGAFEHGASIERTSPVKLDVSSNAKANMQHVGAASTAPALKASGGNPNDGLLAFGISTWANWDVVSTENTFTVNIDTDGNNRADYMLVTDRAKGIDFPIVRLYGYKNGNLEQIAYYPLNNAWGDTDTNMMDSNALVMAVPLKDLGLSAEKTKDIKYSVSATTQYAWTNVSETGWINYRPFDPKLWFSGTAATVPGFFADAPSSELVAHRAEGATDVKALFLHMHNTTGDLSGLNGAAGNRAQVLEVTEQQQLDPAPSRFTDVPAENQFYAEINWLAQRRITTGYPDGTFRPGENVERGAMAAYFYRLAGTPQFTAPDNPTFSDVPKSHPFYKEIEWMAARGITTGYGDGTFRPSASVNRDAMAAFFYRYANSPQFAAPAASPFKDVPANSQFYKEIAWLAEQGITKGWDDGTYRPGEPIHRDAMAAFLYRYSDKVLK", "values": [
      {"measurement": "pH values down to which activity is retained", "setting": "[1]", "value": "≥ 3.0"}
    ]},
    {"molecule": "KGJ00122.1: peptidase S8, subtilisin from Rothia dentocariosa (protein, listed as Rothia dentocariosa) MPKNTPIRGLSRACLSATLGVTMAITAGLPATAAPAGDPDTPVAQDIARNSREHAVLSDSMKKAEGNIPVFVQFKGKGAYEQTQSPAVLANKQAPINKQAEVQAIKTQVQSQAQAAAQSTGAKTLYTTHNIMRGVALQGDAAQIRALANNPEVERITPIVPKKKQNAGSVVDTGAAENWARENSGYTGKDVKIAVVDSGIDYTHSDFGGPGTVEAFNKATKLTEMPAADSGLYDAKKYIGGYDLVGDSYDGTNQTTPDNNPIDCSAGGHGTHVAGTAAGYGVNQDGTTFRGDYSKLTAEQLNQMKIGPGAAPEAQLYSFRVFGCTGTTAVVVQALDRTLDPNGDGDFSDRANIVNLSIGGEFSPPDDADAYAVESLNRQGVLAVVSAGNATDYYGRGDTYSDSGQPANAVSALTVANSIGSSYAVDSMEIQAPANVAGKVPGDYTVSYTYTGAKPEALTGTVVTPSESNKFGCEAFSAEDAAKIKDKWVFIEWANADGSLPCGSKVRFDNVEKAGGKGVVLSSEEEKPALPIGGNESIPGFRVAKSASAKVREAAATGELKVRLGADLKESLRVPSNKKDQLTASSARGYHGTYGYTKPDVAAPGNNISSARVGTGTGGISYTGTSMSAPFAAGVAAQVLQANQSYGPTQLKAAIMNSANHDVRTADGNVYAVDRVGSGRIDAKAAAETKVLLYNADRPAQVSQTFGVLEYAVNEGKQTLTREMTVENFDSHTHTYNISYAGSTDMPGVEFSLPSNITVNPGEKKNFTVTITIDPAAMEKTMDPAMEKTHNSVDPYGDGTELVPEQYRQFIASESGRILLTEGAATLRAPIHAAPKPASAMKVEGSSVEIPAGEHQANLKLTGTELNQRGYKSLLGAFEHGASIERTSPVKLDVSSNAKANMQHVGAASTAPALKASGGNPNDGLLAFGISTWANWDVVSTENTFTVNIDTDGNNRADYMLVTDRAKGIDFPIVRLYGYKNGNLEQIAYYPLNNAWGDTDTNMMDSNALVMAVPLKDLGLSAEKTKDIKYSVSATTQYAWTNVSETGWINYRPFDPKLWFSGTAATVPGFFADAPSSELVAHRAEGATDVKALFLHMHNTTGDLSGLNGAAGNRAQVLEVTEQQQLDPAPSRFTDVPAENQFYAEINWLAQRRITTGYPDGTFRPGENVERGAMAAYFYRLAGTPQFTAPDNPTFSDVPKSHPFYKEIEWMAARGITTGYGDGTFRPSDSVNRDAMAAFFYRYANSPQFAAPAASPFKDVPANSQFYKEIAWLAEQGITKGWDDGTYRPGEPIHRDAMAAFLYRYSDKVLK", "values": [
      {"measurement": "activity in the casein degradation assay (zymogram)", "setting": "[2]", "value": "gluten-degrading properties"}
    ]},
    {"molecule": "Eglin C: an effective inhibitor of B. licheniformis subtilisin A (protein) TEFGSELKSFPEVVGKTVDQAREYFTLHYPQYDVYFLPEGSPVTLDLRYNRVRVFYNPGTNVVNHVPHVG", "values": [
      {"measurement": "inhibition of Rmep by high concentrations of Eglin C", "setting": "[3]", "value": "only partly inhibited"},
      {"measurement": "inhibition of B. licheniformis subtilisin A by Eglin C", "setting": "[4]", "value": "effective inhibitor"}
    ]}
  ]
}
